According to patent US20260151453A1, “COMBINATION THERAPY FOR THE TREATMENT OF CANCER” (PEPTOMYC, S.L., priority 2022, published 2026):

Key:
MDA-MB-231 cells [1] = test: Viability of MDA-MB-231 TNBC cells treated alone and in combination for 5 days; synergy score by SynergyFinder.org; format: cell-based; settings: single agent, 5 days (FIG. 1A)
Procedure: Triple negative breast cancer (TNBC) cell lines MDA-MB-231, SUM149 and MX-1 were treated with increasing concentrations of Olaparib or Talazoparib and the Omomyc peptide sequence SEQ ID NO: 4, alone and in combination, for 5 days.
Then synergy score was calculated by SynergyFinder.org after having carried out 3 biological replicates.
(§1) Synergy scores can be interpreted as the average excess response due to drug interactions. Synergy scores close to 0 give limited confidence in synergy or antagonism. So, when the synergy scores are: less than −10, the interaction between two drugs is likely to be antagonistic. From −10 to 10, the interaction between two drugs is likely to be additive. Greater than 10, the interaction between two drugs is likely to be synergistic.

MDA-MB-231 cells [2] = test: Microarray analysis of gene expression in MDA-MB-231 cells; format: cell-based; settings: data not shown
MIA-PACA-2 cells = test: Viability of PDAC MIA-PACA-2 cells treated alone and in combination for 5 days; synergy score by SynergyFinder.org; format: cell-based; settings: MIA-PACA-2 cells, Omomyc added to Olaparib
Excerpt: as §1
Pancreatic ductal adenocarcinoma (PDAC) MIA-PACA-2 cells were treated with increasing concentrations of Olaparib and the Omomyc peptide sequence SEQ ID NO: 4 alone and in combination, for 5 days.
Then synergy score was calculated by SynergyFinder.org after having carried out 3 biological replicates as described above.

[3] = test system: SUM149 cell-derived xenograft (CDX); test: SUM149 cell-derived xenograft (CDX) model, orthotopic in mammary fat-pad, tumour growth; format: in vivo; settings: SUM149 CDX mice, 4 weeks; Omomyc 50 mg/kg intravenous once a week; Olaparib 50 mg/kg oral gavage 6 times a week; preliminary
Procedure: SUM149 cell-derived xenograft (CDX) model mice were used for in vivo studies. Each mouse was inoculated orthotopically in the mammary fat-pad with 5 million cells. As the tumours reached 100 mm^3, mice were randomised in 4 treatment groups. Specifically, mice were treated with Omomyc once a week (50 mg/kg, intravenous), with Olaparib 6 times a week (50 mg/kg oral gavage), with the combination of the 2 drugs (combo) or with vehicle alone for 4 weeks. Relative volume was calculated as a percentage of tumour growth from the day of randomization and beginning of treatments. At end-point the average of the groups were respectively: vehicle 901.8%, Omomyc 663.6%, Olaparib 623.6%, and combination 335.8%.

B1: Omomyc: Purified recombinant polypeptide of SEQ ID NO: 4: mutated bHLHZip domain of Myc (E61T, E68I, R74Q, R75N) with N-terminal methionine (protein)
chain: TEENVKRRTHNVLERQRRNELKRSFFALRDQIPELENNEKAPKVVILKKATAYILSVQAETQKLISEIDLLRKQNEQLKHKLEQLRNSCA
viability of cells (MDA-MB-231 cells [1]): significantly reduces viability | expression of homologous recombination (HR-) and BRCA1/2-deficiency related genes and pathways (MDA-MB-231 cells [2]): reduces the expression | reversal of olaparib resistance (MIA-PACA-2 cells): able to revert olaparib resistance | Relative volume, percentage of tumour growth from the day of randomization (group average at end-point) [3]: 663.6%
